In patent publication US20190060430A1 (published 2019):

T1: TPTE peptide on HLA-DRB1*15:01 (human)
T1 peptide: DVVYIFFDIKLLRNI

T2: NY-ESO-1 peptide on HLA-B*35:08 (human)
T2 peptide: LAMPFATPM

T3: PLAC1 peptide on HLA-A*02:01 (human)
T3 peptide: VLCSIDWFM

T4: PLAC1 peptide on HLA-A*02:01 (human)
T4 peptide: CSIDWFMVTVHP

T5: PLAC1 peptide on HLA-A*02:01 (human)
T5 peptide: SIDWFMVTV

T6: hCMV pp65 peptide on HLA-DRB1*07:01 (human)
T6 peptide: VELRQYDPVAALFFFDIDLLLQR


Key:
Assay in all cases: cytokine release
[1] = target: T1, TPTE peptide on HLA-DRB1*15:01
[2] = target: T2, NY-ESO-1 peptide on HLA-B*35:08
[3] = target: NY-ESO-1 peptide on HLA-DRB1*11:01 (human)
[4] = target: T3, PLAC1 peptide on HLA-A*02:01
[5] = target: T4, PLAC1 peptide on HLA-A*02:01
[6] = target: T5, PLAC1 peptide on HLA-A*02:01
[7] = target: T6, hCMV pp65 peptide on HLA-DRB1*07:01

Row | Binder | binding result [4] | binding result [5] | binding result [6] | other results
1 | TCRCD4-TPT#67 (TCR, V domains shown) Valpha: QKEVEQDPGPLSVPEGAIVSLNCTYSNSAFQYFMWYRQYSRKGPELLMYTYSSGNKEDGRFTAQVDKSSKYISLFIRDSQPSDSATYLCALYTGGFKTIFGAGTRLFVKA Vbeta: KAGVTQTPRYLIKTRGQQVTLSCSPISGHRSVSWYQQTPGQGLQFLFEYFSETQRNKGNFPGRFSGRQFSNSRSEMNVSTLELGDSALYLCASSFMGTEQYFGPGTRLTVT | – | – | – | binding result [1]: recognises
2 | TCRCD8-NY#8 (TCR, V domains shown) Valpha: AQSVTQLDSQVPVFEEAPVELRCNYSSSVSVYLFWYVQYPNQGLQLLLKYLSGSTLVKGINGFEAEFNKSQTSFHLRKPSVHISDTAEYFCAVSDQGTGGFKTIFGAGTRLFVKA Vbeta: DVKVTQSSRYLVKRTGEKVFLECVQDMDHENMFWYRQDPGLGLRLIYFSYDVKMKEKGDIPEGYSVSREKKERFSLILESASTNQTSMYLCASRGTVTSSLMNTEAFFGQGTRLTVV | – | – | – | binding result [2]: recognises
3 | TCRCD8-NY#15 (TCR, V domains shown) Valpha: QKEVEQNSGPLSVPEGAIASLNCTYSDRGSQSFFWYRQYSGKSPELIMSIYSNGDKEDGRFTAQLNKASQYVSLLIRDSQPSDSATYLCAVPYYWSSGGSNYKLTFGKGTLLTVNP Vbeta: DTEVTQTPKHLVMGMTNKKSLKCEQHMGHRAMYWYKQKAKKPPELMFVYSYEKLSINESVPSRFSPECPNSSLLNLHLHALQPEDSALYLCASSQSGLEETQYFGPGTRLLVL | – | – | – | binding result [2]: recognises
4 | TCRCD4-NY#5 (TCR, V domains shown) Valpha: AQSVTQLGSHVSVSEGALVLLRCNYSSSVPPYLFWYVQYPNQGLQLLLKYTTGATLVKGINGFEAEFKKSETSFHLTKPSAHMSDAAEYFCAVSRANFGNEKLTFGTGTRLTIIP Vbeta: DTEVTQTPKHLVMGMTNKKSLKCEQHMGHRAMYWYKQKAKKPPELMFVYSYEKLSINESVPSRFSPECPNSSLLNLHLHALQPEDSALYLCASSQDPRGGPQHFGDGTRLSIL | – | – | – | binding result [3]: recognises
5 | TCRCD8-mPL#22 (TCR, V domains shown) Valpha: GQQVQQSPASLVLQEGENAELQCNFSSTATRLQWFYQHPGGRLVSLFYNPSGTKHTGRLTSTTVTNERRSSLHISSSQTTDSGTYFCAAASNTNKVVFGTGTRLQVLP Vbeta: GALVYQYPRRTICKSGTSMRMECQAVGFQATSVAWYRQSPQKTFELIALSTVNSAIKYEQNFTQEKFPISHPNLSFSSMTVLNAYLEDRGLYLCGVDRANYAEQFFGPGTRLTVL | recognises | recognises | recognises | –
6 | TCRCD4-CMV#3 (TCR, V domains shown) Valpha: AQSVTQLDSQVPVFEEAPVELRCNYSSSVSVYLFWYVQYPNQGLQLLLKYLSGSTLVKGINGFEAEFNKSQTSFHLRKPSVHISDTAEYFCAVSSYGSSNTGKLIFGQGTTLQVKP Vbeta: NAGVTQTPKFQVLKTGQSMTLQCAQDMNHNSMYWYRQDPGMGLRLIYYSASEGTTDKGEVPNGYNVSRLNKREFSLRLESAAPSQTSVYFCASSTAGGRNYGYTFGSGTRLTVV | – | – | – | binding result [7]: recognises
7 | TCRCD8-mPL#20 (TCR, V domains shown) Valpha: GDSVTQKEGLVTLTEGLPVMLNCTYQTIYSNAFLFWYVHYLNESPRLLLKSSTDNKRTEHQGFHATLHKSSSSFHLQKSSAQLSDSALYYCALNNVGDNSKLIWGLGTSLVVNP Vbeta: NTKITQSPRYLILGRANKSLECEQHLGHNAMYWYKQSAEKPPELMFLYNLKQLIRNETVPSRFIPECPDSSKLLLHISAVDPEDSAVYFCASSQYGGANTEVFFGKGTRLTVV | recognises | recognises | recognises | –
8 | TCRCD8-mPL#17 (TCR, V domains shown) Valpha: QQQVRQSPQSLTVWEGETAILNCSYEDSTFNYFPWYQQFPGEGPALLISIRSVSDKKEDGRFTIFFNKREKKLSLHITDSQPGDSATYFCAPNNRIFFGDGTQLVVKP Vbeta: EAAVTQSPRNKVAVTGGKVTLSCNQTNNHNNMYWYRQDTGHGLRLIHYSYGAGSTEKGDIPDGYKASRPSQENFSLILELATPSQTSVYFCASLGYNYAEQFFGPGTRLTVL | recognises | recognises | recognises | –
9 | TCRCD4-TPT#91 (TCR, V domains shown) Valpha: EDQVTQSPEALRLQEGESSSLNCSYTVSGLRGLFWYRQDPGKGPEFLFTLYSAGEEKEKERLKATLTKKESFLHITAPKPEDSATYLCAVLGGSNYKLTFGKGTLLTVNP Vbeta: NAGVTQTPKFQVLKTGQSMTLQCAQDMNHNSMYWYRQDPGMGLRLIYYSASEGTTDKGEVPNGYNVSRLNKREFSLRLESAAPSQTSVYFCAISRDSYEQYFGPGTRLTVT | – | – | – | binding result [1]: recognises
10 | TCRCD8-mPL#12 (TCR, V domains shown) Valpha: GDQVEQSPSALSLHEGTGSALRCNFTTTMRAVQWFQQNSRGSLINLFYLASGTKENGRLKSTFNSKESYSTLHIRDAQLEDSGTYFCAAVNTNTGKLTFGDGTVLTVKP Vbeta: SVLLYQKPNRDICQSGTSLKIQCVADSQVVSMFWYQQFQEQSLMLMATANEGSEATYESGFTKDKFPISRPNLTFSTLTVNNARPGDSSIYFCSSRTPNTGQLYFGEGSKLTVL | recognises | recognises | recognises | –
11 | TCRCD4-NY#11 (TCR, V domains shown) Valpha: AQSVSQHNHHVILSEAASLELGCNYSYGGTVNLFWYVQYPGQHLQLLLKYFSGDPLVKGIKGFEAEFIKSKFSFNLRKPSVQWSDTAEYFCAVNRRTGNQGGKLIFGQGTELSVKP Vbeta: EAGVAQSPRYKIIEKRQSVAFWCNPISGHATLYWYQQILGQGPKLLIQFQNNGVVDDSQLPKDRFSAERLKGVDSTLKIQPAKLEDSAVYLCASSLGPYIDGAGCTFGSGTRLTVV | – | – | – | binding result [3]: recognises
12 | TCRCD8-mPL#19 (TCR, V domains shown) Valpha: GDSVIQMQGQVTLSENDFLFINCTYSTTGYPTLFWYVQYSGEGPQLLLQVTTANNKGSSRGFEATYDKGTTSFHLQKTSVQEIDSAVYYCAMSDASGSWQLIFGSGTQLTVMP Vbeta: EAAVTQSPRSKVAVTGGKVTLSCHQTNNHDYMYWYRQDTGHGLRLIHYSYVADSTEKGDIPDGYKASRPSQENFSLILELASLSQTAVYFCASSPDRPSYNSPLYFAAGTRLTVT | recognises | recognises | recognises | –
13 | TCRCD8-mPL#8 (TCR, V domains shown) Valpha: TQTVSQSDAHVTVFEGDSVELRCNYSYGGSIYLSWYIQHHGRGLQFLLKYYSGNPVVQGVNGFKAEFSKSDSSFHLRKASVHWSDSAVYFCAVSAGGYKVVFGSGTRLLVSP Vbeta: NTKITQSPRYLILGRANKSLECEQHLGHNAMYWYKQSAEKPPELMFLYNLKQLIRNETVPSRFIPECPDSSKLLLHISAVDPEDSAVYFCASSPGGAEQFFGPGTRLTVL | recognises | recognises | recognises | –
14 | TCRCD8-mPL#14 (TCR, V domains shown) Valpha: TQTVSQSDAHVTVFEGDSVELRCNYSYGGSIYLSWYIQHHGHGLQFLLKYYSGNPVVQGVNGFEAEFSKSDSSFHLRKASVHWSDSAVYFCAVSSGGYKVVFGSGTRLLVSP Vbeta: NTKITQSPRYLILGRANKSLECEQHLGHNAMYWYKQSAEKPPELMFLYNLKQLIRNETVPSRFIPECPDSSKLLLHISAVDPEDSAVYFCASSQGGTEVFFGKGTRLTVV | recognises | recognises | recognises | –
15 | TCRCD8-NY#5 (TCR, V domains shown) Valpha: ILNVEQSPQSLHVQEGDSTNFTCSFPSSNFYALHWYRWETAKSPEALFVMTLNGDEKKKGRISATLNTKEGYSYLYIKGSQPEDSATYLCASTSYSSASKIIFGSGTRLSIRP Vbeta: GAGVSQSPRYKVTKRGQDVALRCDPISGHVSLYWYRQALGQGPEFLTYFNYEAQQDKSGLPNDRFSAERPEGSISTLTIQRTEQRDSAMYRCASSHSSGGAGELFFGEGSRLTVL | – | – | – | binding result [2]: recognises
16 | TCRCD8-NY#6 (TCR, V domains shown) Valpha: SQQGEEDPQALSIQEGENATMNCSYKTSINNLQWYRQNSGRGLVHLILIRSNEREKHSGRLRVTLDTSKKSSSLLITASRAADTASYFCATDEYGNKLVFGAGTILRVKS Vbeta: DAGVIQSPRHEVTEMGQEVTLRCKPISGHNSLFWYRQTMMRGLELLIYFNNNVPIDDSGMPEDRFSAKMPNASFSTLKIQPSEPRDSAVYFCASSYPGFNEQFFGPGTRLTVL | – | – | – | binding result [2]: recognises
17 | TCRCD8-mPL#2 (TCR, V domains shown) Valpha: GDSVTQTEGQVTVSESKSLIINCTYSATSIGYPNLFWYVRYPGEGLQLLLKVITAGQKGSSRGFEATYNKEATSFHLQKASVQESDSAVYYCALSDSNYQLIWGSGTKLIIKP Vbeta: DPKIIQKPKYLVAVTGSEKILICEQYLGHNAMYWYRQSAKKPLEFMFSYSYQKLMDNQTASSRFQPQSSKKNHLDLQITALKPDDSATYFCASSPDNSGNTLYFGEGSRLIVV | recognises | recognises | recognises | –
18 | TCRCD8-mPL#11 (TCR, V domains shown) Valpha: GDSVTQTEGPVTVSESESLIINCTYSATSIAYPNLFWYVRYPGEGLQLLLKVITAGQKGSSRGFEATYNKETTSFHLQKASVQESDSAVYYCALGLGYKLTFGTGTSLLVDP Vbeta: DPKIIQKPKYLVAVTGSEKILICEQYLGHNAMYWYRQSAKKPLEFMFSYSYQKLMDNQTASSRFQPQSSKKNHLDLQITALKPDDSATYFCASSGDNSGNTLYFGEGSRLIVV | recognises | recognises | recognises | –
19 | TCRCD4-TPT#48/2 (TCR, V domains shown) Valpha: AQSVTQPDIHITVSEGASLELRCNYSYGATPYLFWYVQSPGQGLQLLLKYFSGDTLVQGIKGFEAEFKRSQSSFNLRKPSVHWSDAAEYFCAVGAYDMRFGAGTRLTVKP Vbeta: DVKVTQSSRYLVKRTGEKVFLECVQDMDHENMFWYRQDPGLGLRLIYFSYDVKMKEKGDIPEGYSVSREKKERFSLILESASTNQTSMYLCASNRLNTEAFFGQGTRLTVV | – | – | – | binding result [1]: recognises
